US9206411B2, “Staphylococcal Phage2638A endolysin amidase domain is lytic for Staphylococcus aureus” (priority 2012, dated 2015)

Experiments:
Assay type in all cases: cell-based
[1] = tested on: S. aureus strain NRS119 (SA LinR #12; linezolid resistant); experiment: Plate lysis assay (FIG. 3); details: lawn on TSA plates, observed over days
Procedure: (§1) Purified proteins for each construct were diluted in sterile nickel column elution buffer, and 6 μL of lysostaphin (11 μg) or the constructs (0.2 nmoles or ˜11 μg for the repaired construct 2638A 1-180Mut-486) was spotted onto a freshly spread lawn of S. aureus strain NRS119 (SA LinR #12; linezolid resistant) growing cells that had air dried for 30 min on tryptic soy agar (TSA) plates. L=[…] Lysostaphin (Sigma); Spot 1=11 μg; all other constructs are 0.2 nmoles (˜11 μg for the repaired construct 2638A 1-180Mut-486) […]. The spotted plates were air dried for 10 min in a laminar flow hood and incubated overnight in a 37° C. environment. Scoring of the cleared spots occurred within 20 h of plating the cells.
(§2) The Plate Lysis assay results (FIG. 3) agree with the turbidity reduction assay. Each of the M23 peptidase dependent or SH3b-truncating constructs showing weak activity on S. aureus strain Newman strain. In addition to the Plate Lysis results in FIG. 3, we have also examined numerous strains with reduced but real lytic activity (Table 1). However, the plate lysis results with the 2638A endolysin constructs are extremely novel in appearance. Plate lysis results are routinely visualized as a discrete cleared spot on a lawn of bacteria after a single overnight of culture. […]

[2] = tested on: S. aureus Tanji 29; experiment: Plate lysis, susceptibility of strains to 2638A (Table 1); parameters: key: − = >100 pmol; (+) = very faint lysis zone; + = 100 pmol; ++ = 10 pmol; +++ = 1 pmol
Procedure: as §1, §2

[3] = tested on: S. aureus Tanji 3; experiment: as above
Procedure: as §1
(§3) The Plate Lysis assay results (FIG. 3) agree with the turbidity reduction assay. Each of the M23 peptidase dependent or SH3b-truncating constructs showing weak activity on S. aureus strain Newman strain. In addition to the Plate Lysis results in FIG. 3, we have also examined numerous strains with reduced but real lytic activity (Table 1). However, the plate lysis results with the 2638A endolysin constructs are extremely novel in appearance. Plate lysis results are routinely visualized as a discrete cleared spot on a lawn of bacteria after a single overnight of culture. […] In contrast, the 2638A endolysin is unique in that sometimes this cleared zone requires multiple days to appear. […] Thus, there is also a likelihood that the enzyme might work preferentially on late log or stationary phase cells in the plate lysis assay, as the 3 day old culture is likely not growing as quickly as the freshly-plated overnight culture.

[4] = tested on: S. aureus SA113 ΔtagO; experiment: as above
Procedure: as §1, §3

[5] = tested on: S. epidermidis; experiment: as above
Procedure: as §1, §3

[6] = tested on: S. aureus SA113; experiment: as above
Procedure: as §1, §3

[7] = tested on: S. aureus Tanji 33; experiment: as above
Procedure: as §1, §3

[8] = tested on: S. aureus Newman ΔdltA; experiment: as above
Procedure: as §1, §3

[9] = tested on: S. aureus Newman ΔtagO; experiment: as above
Procedure: as §1, §3

[10] = tested on: S. aureus ALC 1342; experiment: as above
Procedure: as §1, §3

[11] = tested on: S. aureus Tanji 26; experiment: as above
Procedure: as §1, §3

[12] = tested on: S. aureus NRS 385 (MRSA); experiment: as above
Procedure: as §1, §3

[13] = tested on: S. aureus Newman srtA::ermB; experiment: as above
Procedure: as §1, §3

[14] = tested on: S. aureus Tanji 31; experiment: as above
Procedure: as §1, §3

[15] = tested on: S. aureus Tanji 48; experiment: as above
Procedure: as §1, §3

[16] = tested on: S. aureus Tanji 28; experiment: as above
Procedure: as §1, §3

[17] = tested on: S. aureus Newman; experiment: as above
Procedure: as §1, §3

[18] = tested on: S. aureus Tanji 49; experiment: as above
Procedure: as §1, §3

[19] = tested on: S. xylosus; experiment: as above
Procedure: as §1, §3

[20] = tested on: S. aureus MN8 Δica; experiment: as above
Procedure: as §1, §3

[21] = tested on: S. aureus Newman Δica; experiment: as above
Procedure: as §1, §3

[22] = tested on: S. aureus Tanji 2; experiment: as above
Procedure: as §1, §3

[23] = tested on: S. aureus Newman sm^r; experiment: as above
Procedure: as §1, §3

[24] = tested on: S. aureus NRS 382 (MRSA); experiment: as above
Procedure: as §1, §3

[25] = tested on: S. aureus Reynolds (CP8); experiment: as above
Procedure: as §1, §3

[26] = tested on: S. aureus ANG 144; experiment: as above
Procedure: as §1, §3

[27] = tested on: S. aureus Tanji 1; experiment: as above
Procedure: as §1, §3

[28] = tested on: S. aureus Tanji 9; experiment: as above
Procedure: as §1, §3

[29] = tested on: S. aureus ANG 133; experiment: as above
Procedure: as §1, §3

[30] = tested on: S. aureus MN8 ΔsarA; experiment: as above; parameters: key to Susceptibility to lysis by 2638A, day 1: − = >100 pmol; (+) = very faint lysis zone; + = 100 pmol; ++ = 10 pmol; +++ = 1 pmol
Procedure: as §1, §3

[31] = tested on: S. aureus NRS 383 (MRSA); experiment: as above; parameters: key to Susceptibility to lysis by 2638A, day 1: − = >100 pmol; (+) = very faint lysis zone; + = 100 pmol; ++ = 10 pmol; +++ = 1 pmol
Procedure: as §1, §3

B1: 2638A Endolysin: 486 amino acid staphylococcal phage 2638A endolysin (SEQ ID NO:4), C-terminally 6×His-tagged; M23 peptidase, amidase, SH3b domains (protein)
chain: MLTAIDYLTKKGWKISSDPRTYDGYPKNYGYRNYHENGINYDEFCGGYHRAFDVYSNETNDVPAVTSGTVIEANDYGNFGGTFVIRDANDNDWIYGHLQRGSMRFVVGDKVNQGDIIGLQGNSNYYDNPMSVHLHLQLRPKDAKKDEKSQVCSGLAMEKYDITNLNAKQDKSKNGSVKELKHIYSNHIKGNKITAPKPSIQGVVIHNDYGSMTPSQYLPWLYARENNGTHVNGWASVYANRNEVLWYHPTDYVEWHCGNQWANANLIGFEVCESYPGRISDKLFLENEEATLKVAADVMKSYGLPVNRNTVRLHNEFFGTSCPHRSWDLHVGKGEPYTTTNINKMKDYFIKRIKHYYDGGKLEVSKAATIKQSDVKQEVKKQEAKQIVKATDWKQNKDGIWYKAEHASFTVTAPEGIITRYKGPWTGHPQAGVLQKGQTIKYDEVQKFDGHVWVSWETFEGETVYMPVRTWDAKTGKVGKLWGEIKLEHHHHHH
modifications: C-terminal His6 tag; Mutated Phage 2638a
notes: M23 peptidase, amidase, SH3b domains
With B1 the “appearance and persistence of the cleared zone in plate lysis” value [1] was “very broad, ill-defined region of clearing that grows with time, up to four days”, the “Susceptibility to lysis by 2638A, day 1” value [2] was “(+)” and the “Susceptibility to lysis by 2638A, day 1” value ([3]; day 1) was “− (− = >100 pmol)”. The “Susceptibility to lysis by 2638A, day 3+” value ([3]; day 3+) was “− (− = >100 pmol)”, the “Susceptibility to lysis by 2638A, day 1” value ([4]; day 1) was “+++ (+++ = 1 pmol)” and the “Susceptibility to lysis by 2638A, day 3+” value ([4]; day 3+) was “+++ (+++ = 1 pmol)”. The “Susceptibility to lysis by 2638A, day 1” value ([5]; day 1) was “− (− = >100 pmol)”, the “Susceptibility to lysis by 2638A, day 3+” value ([5]; day 3+) was “+ (+ = 100 pmol)” and the “Susceptibility to lysis by 2638A, day 1” value ([6]; day 1) was “+ (+ = 100 pmol)”. The “Susceptibility to lysis by 2638A, day 3+” value ([6]; day 3+) was “++ (++ = 10 pmol)”, the “Susceptibility to lysis by 2638A, day 1” value ([7]; day 1) was “− (− = >100 pmol)” and the “Susceptibility to lysis by 2638A, day 3+” value ([7]; day 3+) was “+ (+ = 100 pmol)”. The “Susceptibility to lysis by 2638A, day 1” value ([8]; day 1) was “− (− = >100 pmol)”, the “Susceptibility to lysis by 2638A, day 3+” value ([8]; day 3+) was “− (− = >100 pmol)” and the “Susceptibility to lysis by 2638A, day 1” value ([9]; day 1) was “+++ (+++ = 1 pmol)”. The “Susceptibility to lysis by 2638A, day 3+” value ([9]; day 3+) was “+++ (+++ = 1 pmol)”, the “Susceptibility to lysis by 2638A, day 1” value ([10]; day 1) was “− (− = >100 pmol)” and the “Susceptibility to lysis by 2638A, day 3+” value ([10]; day 3+) was “− (− = >100 pmol)”. For the same molecule, the “Susceptibility to lysis by 2638A, day 1” value ([11]; day 1) was “− (− = >100 pmol)”, the “Susceptibility to lysis by 2638A, day 3+” value ([11]; day 3+) was “+ (+ = 100 pmol)” and the “Susceptibility to lysis by 2638A, day 1” value ([12]; day 1) was “− (− = >100 pmol)”. The “Susceptibility to lysis by 2638A, day 3+” value ([12]; day 3+) was “− (− = >100 pmol)”, the “Susceptibility to lysis by 2638A, day 1” value ([13]; day 1) was “− (− = >100 pmol)” and the “Susceptibility to lysis by 2638A, day 3+” value ([13]; day 3+) was “− (− = >100 pmol)”. For the same molecule, the “Susceptibility to lysis by 2638A, day 1” value ([14]; day 1) was “− (− = >100 pmol)”, the “Susceptibility to lysis by 2638A, day 3+” value ([14]; day 3+) was “− (− = >100 pmol)” and the “Susceptibility to lysis by 2638A, day 1” value ([15]; day 1) was “− (− = >100 pmol)”. The “Susceptibility to lysis by 2638A, day 3+” value ([15]; day 3+) was “+ (+ = 100 pmol)”, the “Susceptibility to lysis by 2638A, day 1” value ([16]; day 1) was “− (− = >100 pmol)” and the “Susceptibility to lysis by 2638A, day 3+” value ([16]; day 3+) was “− (− = >100 pmol)”. For the same molecule, the “Susceptibility to lysis by 2638A, day 1” value ([17]; day 1) was “− (− = >100 pmol)”, the “Susceptibility to lysis by 2638A, day 3+” value ([17]; day 3+) was “− (− = >100 pmol)” and the “Susceptibility to lysis by 2638A, day 1” value [18] was “− (− = >100 pmol)”. For the same molecule, the “Susceptibility to lysis by 2638A, day 1” value ([19]; day 1) was “− (− = >100 pmol)”, the “Susceptibility to lysis by 2638A, day 3+” value ([19]; day 3+) was “− (− = >100 pmol)” and the “Susceptibility to lysis by 2638A, day 1” value ([20]; day 1) was “− (− = >100 pmol)”. The “Susceptibility to lysis by 2638A, day 3+” value ([20]; day 3+) was “++ (++ = 10 pmol)”, the “Susceptibility to lysis by 2638A, day 1” value ([21]; day 1) was “− (− = >100 pmol)” and the “Susceptibility to lysis by 2638A, day 3+” value ([21]; day 3+) was “− (− = >100 pmol)”. The “Susceptibility to lysis by 2638A, day 1” value ([22]; day 1) was “− (− = >100 pmol)”, the “Susceptibility to lysis by 2638A, day 3+” value ([22]; day 3+) was “+ (+ = 100 pmol)” and the “Susceptibility to lysis by 2638A, day 1” value ([23]; day 1) was “− (− = >100 pmol)”. The “Susceptibility to lysis by 2638A, day 3+” value ([23]; day 3+) was “− (− = >100 pmol)”, the “Susceptibility to lysis by 2638A, day 1” value ([24]; day 1) was “− (− = >100 pmol)” and the “Susceptibility to lysis by 2638A, day 3+” value ([24]; day 3+) was “− (− = >100 pmol)”. The “Susceptibility to lysis by 2638A, day 1” value ([25]; day 1) was “− (− = >100 pmol)”, the “Susceptibility to lysis by 2638A, day 3+” value ([25]; day 3+) was “− (− = >100 pmol)” and the “Susceptibility to lysis by 2638A, day 1” value ([26]; day 1) was “− (− = >100 pmol)”. The “Susceptibility to lysis by 2638A, day 3+” value ([26]; day 3+) was “− (− = >100 pmol)”, the “Susceptibility to lysis by 2638A, day 1” value ([27]; day 1) was “− (− = >100 pmol)” and the “Susceptibility to lysis by 2638A, day 3+” value ([27]; day 3+) was “− (− = >100 pmol)”. The “Susceptibility to lysis by 2638A, day 1” value ([28]; day 1) was “− (− = >100 pmol)”, the “Susceptibility to lysis by 2638A, day 3+” value ([28]; day 3+) was “− (− = >100 pmol)” and the “Susceptibility to lysis by 2638A, day 1” value ([29]; day 1) was “− (− = >100 pmol)”. The “Susceptibility to lysis by 2638A, day 3+” value ([29]; day 3+) was “− (− = >100 pmol)”, the “Susceptibility to lysis by 2638A, day 1” value ([30]; day 1) was “(+)” and the “Susceptibility to lysis by 2638A, day 3+” value ([30]; day 3+) was “+++ (+++ = 1 pmol)”. The “Susceptibility to lysis by 2638A, day 1” value ([31]; day 1) was “(+)” and the “Susceptibility to lysis by 2638A, day 3+” value ([31]; day 3+) was “++ (++ = 10 pmol)”.
